According to patent US20080039616A1:

Target: FLAG® HA BAP fusion protein [phosphatase: P00634]
Test: immunoprecipitation of purified FLAG HA BAP in 3 extraction buffers, blot with anti-HA-peroxidase

For ANTI-FLAG® affinity resin (antibody), the protein recovery (% of input protein) (% of input protein) was > 70.
